Measurements taken from paper PMC4337239, “Polyol specificity of recombinant Arabidopsis thaliana sorbitol dehydrogenase studied by enzyme kinetics and in silico modeling” (Frontiers in Plant Science, 2015).

How the values were obtained:
Test in all cases: purified protein
purified protein [1] = substrate: OC[C@@H](O)[C@@H](O)[C@@H](O)CO; conditions: 1.36 mM NAD+, 100 mM Tris-HCl pH 9, 25 °C, Michaelis-Menten fit
purified protein [2] = substrate: OC[C@@H](O)[C@H](O)[C@@H](O)CO; conditions: 1.36 mM NAD+, 100 mM Tris-HCl pH 9, 25 °C, fit with substrate inhibition
purified protein [3] = substrate: OC[C@@H](O)[C@@H](O)[C@H](O)[C@@H](O)CO; format: biochemical, Arabidopsis thaliana; conditions: 1.36 mM NAD+, 100 mM Tris-HCl pH 9, 25 °C, Michaelis-Menten fit

B1: recombinant AtSDH (Arabidopsis thaliana) (protein)
chain: MGKGGMSQGEGSKVEEENMAAWLVGINTLKIQPFLLPSVGPHDVRVRMKAVGICGSDVHYLKTMRCADFVVKEPMVIGHECAGIIEEVGEEVKHLVVGDRVALEPGISCWRCNLCREGRYNLCPEMKFFATPPVHGSLANQVVHPADLCFKLPENVSLEEGAMCEPLSVGVHACRRAEVGPETNVLVMGAGPIGLVTMLAARAFSVPRIVIVDVDENRLAVAKQLGADEIVQVTTNLEDVGSEVEQIQKAMGSNIDVTFDCAGFNKTMSTALAATRCGGKVCLVGMGHGIMTVPLTPAAAREVDVVGVFRYKNTWPLCLEFLTSGKIDVKPLITHRFGFSQKEVEDAFETSARGSNAIKVMFNL
notes: full length 364 residues; N-terminal 6xHis tag cut off by TEV protease; pEXP5-NT/TOPO, cell-free in vitro expression (Expressway); oligomeric state not determined
Purified protein [1]
  Km: 1.05 ± 0.10 mM
  kcat: 1.83 s⁻¹
  kcat/Km: 1740 M⁻¹ s⁻¹
Purified protein [2]
  Km: 0.27 ± 0.04 mM
  kcat: 2.12 s⁻¹
  kcat/Km: 7740 M⁻¹ s⁻¹
Purified protein [3]
  Km: 0.96 ± 0.07 mM
  kcat: 2.13 ± 0.03 s⁻¹
  kcat/Km: 2230 ± 170 M⁻¹ s⁻¹
